In the assay the target is tissue plasminogen activator (UniProt P00750 36-562, limits assumed). In words: cell-based or functional assay.
Chain of tissue plasminogen activator (P00750 36-562 limits assumed): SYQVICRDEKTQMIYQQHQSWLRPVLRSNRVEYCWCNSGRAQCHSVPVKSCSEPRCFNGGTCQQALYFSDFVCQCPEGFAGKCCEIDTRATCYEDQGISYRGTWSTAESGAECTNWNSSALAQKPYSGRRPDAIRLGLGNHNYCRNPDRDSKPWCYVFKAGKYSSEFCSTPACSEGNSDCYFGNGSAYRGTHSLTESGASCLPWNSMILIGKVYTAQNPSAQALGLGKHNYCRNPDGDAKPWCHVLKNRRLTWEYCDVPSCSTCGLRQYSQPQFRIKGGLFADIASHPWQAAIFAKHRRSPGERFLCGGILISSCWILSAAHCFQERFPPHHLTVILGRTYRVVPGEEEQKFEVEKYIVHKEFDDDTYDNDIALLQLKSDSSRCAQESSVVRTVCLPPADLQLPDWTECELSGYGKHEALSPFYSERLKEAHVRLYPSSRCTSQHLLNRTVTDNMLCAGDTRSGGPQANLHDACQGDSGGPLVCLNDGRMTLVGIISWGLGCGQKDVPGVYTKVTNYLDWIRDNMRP

B1: pancreas-derived plasminogen activator inhibitor (PAPAI) protein (other)
chain: SRCSAQKNTEFAVDLYQEVSLSHKDNIIFSPLGITLVLEMVQLGAKGKAQQQIRQTLKQQETSAGEEFLVLKSFCSAISEKKQEFTFNLANALYLQEGFTVKEQYLHGNKEFFQSAIKLVDFQDAKACAEMISTWVERKTDGKIKDMFSGEEFGPLTRLVLVNAIYFKGDWKQKFRKEDTQLINFTKKNGSTVKIPMMKALLRTKYGYFSESSLNYQVLELSYKGDEFSLIIILPAEGMDIEEVEKLITAQQILKWLSEMQEEEVEISLPRFKVEQKVDFKDVLYSLNITEIFSGGCDLSGITDSSEVYVSQVTQKVFFEINEDGSEAATSTGIHIPVIMSLAQSQFIANHPFLFIMKHNPTESILFMGRVTNPDTQEIKGRDLDSL
Regarding B1, the “anti-tPA activity (plasminogen activator inhibitory activity) of concentrated conditioned media” value is 3 fold over PAPAI negative clones.

The values above are taken from patent US6893870 (Human Genome Sciences, dated 2005).
